Biological target: T1, TOP3A 917 (truncated) (Homo sapiens, UniProt Q13472 16-917)
T1 sequence: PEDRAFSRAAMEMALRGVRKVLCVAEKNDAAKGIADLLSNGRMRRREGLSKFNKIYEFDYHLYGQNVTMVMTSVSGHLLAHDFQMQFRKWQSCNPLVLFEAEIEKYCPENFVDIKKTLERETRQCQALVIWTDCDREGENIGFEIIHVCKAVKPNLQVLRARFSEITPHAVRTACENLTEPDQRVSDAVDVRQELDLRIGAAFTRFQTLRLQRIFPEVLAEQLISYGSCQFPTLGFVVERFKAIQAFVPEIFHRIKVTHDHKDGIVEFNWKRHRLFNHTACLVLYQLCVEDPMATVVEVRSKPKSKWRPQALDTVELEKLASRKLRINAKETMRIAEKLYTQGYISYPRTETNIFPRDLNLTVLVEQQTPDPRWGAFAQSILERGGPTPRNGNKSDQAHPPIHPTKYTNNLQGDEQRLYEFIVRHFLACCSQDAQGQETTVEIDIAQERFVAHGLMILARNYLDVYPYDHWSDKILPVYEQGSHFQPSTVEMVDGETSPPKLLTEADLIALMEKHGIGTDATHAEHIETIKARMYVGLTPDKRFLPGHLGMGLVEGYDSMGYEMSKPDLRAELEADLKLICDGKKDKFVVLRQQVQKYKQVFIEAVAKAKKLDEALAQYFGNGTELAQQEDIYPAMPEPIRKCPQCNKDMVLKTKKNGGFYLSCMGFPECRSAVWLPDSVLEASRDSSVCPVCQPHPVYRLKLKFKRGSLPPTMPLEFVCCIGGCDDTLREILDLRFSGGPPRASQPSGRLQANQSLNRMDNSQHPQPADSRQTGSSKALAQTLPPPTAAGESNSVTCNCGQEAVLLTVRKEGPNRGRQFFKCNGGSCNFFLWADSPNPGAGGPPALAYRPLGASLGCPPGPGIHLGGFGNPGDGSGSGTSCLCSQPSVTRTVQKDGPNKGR
Assay: EMSA; no Mg2+ added; higher binding than full-length; 25 mM HEPES pH 7.5, 70 mM NaCl, 100 ug/ml BSA, 1 mM DTT, 10% glycerol, 10 fmol DNA in 20 ul, 37 C 15 min; 8% PAGE in 0.5x TBE at 4 C
Conditions: protein: recombinant; tags: 6xHis removed with TEV (cloning section: N-terminal TEV-cleavable 6xHis; purification section says C-terminal 6xHis); label: 5' 32P; single strand

TGTTATTATTATGTCCTACAAGCATTAATTAATTAACACA (ssDNA) [EMSA substrate (40 nt ssDNA)]
binding result: binds

From publication PMC12585908, “Proteolytic cleavage activates the mitochondrial isoform of TOP3A”
